# Measurements reported in US20210332115A1.
# Substitutions are numbered along the chain they refer to.
# B1: Anti-factor Bb mouse monoclonal antibody (antibody, V domains shown)
# VH: EVQLVESGGALVKPGGSLKLSCAASGFTFSNYAMSWVRQTPEKRLEWVATISNRGSYTYYPDSVKGRFTISRDNAKNTLYLQMSSLRSEDTALYYCARERPMDYWGQGTSVTVSS
# VL: DIVMTQSHKFMSTSVGDRVSITCKASQDVGTAVAWYQQKPGQSPKLLIYWASTRHTGVPDRFTGSGSGTDFTLTITNVQSEDLAVYFCHQHSSNPLTFGAGTKLELK
# B2: VH7/Vκ7 (antibody, V domains shown)
# VH: B1 VH with A10G, K19R, T78S, S84N, S88A, S110L
# VL: DIQMTQSPSTLSASVGDRVTITCKASQDVGTAVAWYQQKPGKAPKLLIYWASTRHTGVPDRFSGSGSGTDFTLTISSLQAEDFAVYFCHQHSSNPLTFGQGTKLEIK
# B3: VH4/Vκ7 (antibody, V domains shown)
# VH: B1 VH with A10G, K19R, T40A, E42G, T78S
# VL: B2 VL
# B4: VH6/Vκ6 (antibody, V domains shown)
# VH: B1 VH with A10G, K19R, T40A, E42G, T78S, S84N, S88A, S110L
# VL: B2 VL with Q3V, T10F, S63T, A80S
# Biological target: cynomolgus monkey factor Bb (cynomolgus monkey)
# Assay: BLI Octet, biotinylated antibody on SA biosensors
row,Kd [nM],Binder
1,11,B1
2,16,B2
3,11,B3
4,11,B4
